The data set concerns Escherichia coli TOP10. Kind of data set: shrunken log2 fold change of peptide-encoding DNA abundance (4.5 h post-induction vs induction); higher = less antimicrobial activity (less host growth inhibition). Conditions: time post-induction: 4.5 h; library: site-saturation at positions 5, 18, 19, 20.
Take RRIRTRPPRLPRPRPRPCRYPRP: the “shrunken log2 fold change” value was 0.0413.
With RRIRGRPPRLPRPRPRPDIQPRP, the “shrunken log2 fold change” value turned out to be 1.9.
For the sequence RRIRPRPPRLPRPRPRPEEIPRP, the “shrunken log2 fold change” value was -0.00277.
For RRIRYRPPRLPRPRPRPINHPRP, the “shrunken log2 fold change” value is -0.675.
Take RRIRFRPPRLPRPRPRPKVKPRP: the “shrunken log2 fold change” value was found to be 0.0668.
In the case of RRIRQRPPRLPRPRPRPETAPRP it was 0.159; in that of RRIRMRPPRLPRPRPRPIRVPRP, 0.335.
On to RRIRNRPPRLPRPRPRPMRTPRP, for which the “shrunken log2 fold change” value came to 0.312.
Under RRIRTRPPRLPRPRPRPMGCPRP stands -0.145.
In the case of RRIRDRPPRLPRPRPRPCNYPRP it was -0.475.
In the case of RRIRLRPPRLPRPRPRPPYAPRP it was 0.296.
RRIRVRPPRLPRPRPRPTRPPRP: the “shrunken log2 fold change” value is 0.822.
RRIRYRPPRLPRPRPRPGPYPRP: the “shrunken log2 fold change” value is -0.771.
Turning to RRIRHRPPRLPRPRPRPSIKPRP, the “shrunken log2 fold change” value is -0.501.
Regarding RRIRCRPPRLPRPRPRPYNWPRP, the “shrunken log2 fold change” value was -0.917.
For RRIRHRPPRLPRPRPRPMHDPRP, the “shrunken log2 fold change” value was -0.0353.
As to RRIRWRPPRLPRPRPRPVPIPRP, the “shrunken log2 fold change” value was -0.0691.
For RRIRNRPPRLPRPRPRPFNAPRP, the “shrunken log2 fold change” value was -0.257.
For the sequence RRIRVRPPRLPRPRPRPNAMPRP, the “shrunken log2 fold change” value is -0.234.
Under RRIRTRPPRLPRPRPRPGLVPRP stands 0.0962.
RRIRVRPPRLPRPRPRPAYQPRP: the “shrunken log2 fold change” value is -0.264.
Take RRIRNRPPRLPRPRPRPFAVPRP: the “shrunken log2 fold change” value was -0.398.
On to RRIRGRPPRLPRPRPRPYTKPRP, for which the “shrunken log2 fold change” value was -0.216.
In the case of RRIRLRPPRLPRPRPRPVSTPRP it was 0.255.
As for RRIRIRPPRLPRPRPRPEKDPRP, the “shrunken log2 fold change” value was -0.0191.
With RRIRPRPPRLPRPRPRPPAFPRP, the “shrunken log2 fold change” value turned out to be 0.166.
RRIRTRPPRLPRPRPRPCHCPRP: the “shrunken log2 fold change” value is -1.43.
For the sequence RRIRGRPPRLPRPRPRPMGNPRP, the “shrunken log2 fold change” value came to 0.124.
For RRIRIRPPRLPRPRPRPMSEPRP, the “shrunken log2 fold change” value was -0.00782.
With RRIRCRPPRLPRPRPRPVAIPRP, the “shrunken log2 fold change” value was -0.156.
For RRIRTRPPRLPRPRPRPWTHPRP, the “shrunken log2 fold change” value is -0.0143.
For the sequence RRIRLRPPRLPRPRPRPKAMPRP, the “shrunken log2 fold change” value was -0.023.
Take RRIRERPPRLPRPRPRPPWEPRP: the “shrunken log2 fold change” value is 0.145.
Under RRIRRRPPRLPRPRPRPANRPRP stands -0.0151.
In the case of RRIRFRPPRLPRPRPRPLWHPRP, the “shrunken log2 fold change” value is -0.248.
For RRIRWRPPRLPRPRPRPKTMPRP, the “shrunken log2 fold change” value was 0.35.
For the sequence RRIRDRPPRLPRPRPRPCVGPRP, the “shrunken log2 fold change” value was found to be 0.97.
In the case of RRIRHRPPRLPRPRPRPFRPPRP it was -0.188; in that of RRIRDRPPRLPRPRPRPTMYPRP, -0.107; in that of RRIRLRPPRLPRPRPRPIRYPRP, -0.272.
For the sequence RRIRFRPPRLPRPRPRPDQMPRP, the “shrunken log2 fold change” value was -0.155.
As to RRIRGRPPRLPRPRPRPEVWPRP, the “shrunken log2 fold change” value is 1.58.
On to RRIRERPPRLPRPRPRPPLYPRP, for which the “shrunken log2 fold change” value was 0.127.
Under RRIRHRPPRLPRPRPRPAHAPRP stands -0.0771.
On to RRIRQRPPRLPRPRPRPLFAPRP, for which the “shrunken log2 fold change” value is 0.013.
For RRIRKRPPRLPRPRPRPMTQPRP, the “shrunken log2 fold change” value was -0.0547.
RRIRTRPPRLPRPRPRPTELPRP: the “shrunken log2 fold change” value is -0.0329.
In the case of RRIRFRPPRLPRPRPRPRNVPRP it was -0.372; in that of RRIRQRPPRLPRPRPRPTRMPRP, 0.185.
Regarding RRIRWRPPRLPRPRPRPVCYPRP, the “shrunken log2 fold change” value was 0.028.
For the sequence RRIRTRPPRLPRPRPRPCRSPRP, the “shrunken log2 fold change” value was -0.0198.
On to RRIRRRPPRLPRPRPRPEVAPRP, for which the “shrunken log2 fold change” value amounted to 0.345.
As for RRIRRRPPRLPRPRPRPIRWPRP, the “shrunken log2 fold change” value amounted to 0.0197.
In the case of RRIRERPPRLPRPRPRPAWRPRP, the “shrunken log2 fold change” value turned out to be 0.532.
For RRIRMRPPRLPRPRPRPFKIPRP, the “shrunken log2 fold change” value is -0.0716.
On to RRIRFRPPRLPRPRPRPDKDPRP, for which the “shrunken log2 fold change” value was -0.393.
Under RRIRVRPPRLPRPRPRPLNPPRP stands -0.113; under RRIRFRPPRLPRPRPRPGSFPRP, -0.0983.
In the case of RRIRARPPRLPRPRPRPWHFPRP it was 0.24.
With RRIRPRPPRLPRPRPRPCCAPRP, the “shrunken log2 fold change” value was 0.0786.
With RRIRYRPPRLPRPRPRPNQHPRP, the “shrunken log2 fold change” value was -1.18.
As to RRIRKRPPRLPRPRPRPYMSPRP, the “shrunken log2 fold change” value was determined as 0.0659.

Source of the values: the supplement of paper PMC9112550, “Optimization of the antimicrobial peptide Bac7 by deep mutational scanning” (BMC Biology, 2022).
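Further: peptides expressed intracellularly from a pBAD plasmid library in pooled LB shake-flask culture, induced with 0.3% L-arabinose, DNA abundance read by NGS, three biological replicates, DESeq2 with apeglm shrinkage.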
